Results on four molecules are retold here after PMC5801815 (Virology Journal, 2018).

The target in assay [1] is SUMO*-DENV-4 NS1 fusion protein (not stated | dengue virus 4 (DENV-4), strain H421) (UniProt Q58HT7). The assay is described as follows: SDS-PAGE.
In assay [2] the target is T1, SUMO*-DENV-4 NS1 fusion protein (Dengue virus 4 strain H241 (printed …, UniProt Q58HT7)).
T1 construct: also called SUMO*-DENV-4 rNS1 fusion protein; SUMO*-NS1 fusion protein
The assay is described as follows: ELISA. As to conditions: one partner purified. On the technique in general: An ELISA detects its analyte on a solid surface through an enzyme-linked reagent.

Assay [3] addresses T2, recombinant DENV-4 non-structural protein 1 (unfused commercial DENV-4 rNS1) (Dengue virus 4, strain  …, UniProt P09866). The assay is described as follows: western blot. As to conditions: one partner purified. (In western blotting, separated proteins are transferred to a membrane and probed.)
The target in assay [4] is T2, recombinant DENV-4 non-structural …. The assay is described as follows: ELISA. The conditions noted are these: one partner purified.

T1 sequence (Q58HT7 whole entry, the tested form may be a part): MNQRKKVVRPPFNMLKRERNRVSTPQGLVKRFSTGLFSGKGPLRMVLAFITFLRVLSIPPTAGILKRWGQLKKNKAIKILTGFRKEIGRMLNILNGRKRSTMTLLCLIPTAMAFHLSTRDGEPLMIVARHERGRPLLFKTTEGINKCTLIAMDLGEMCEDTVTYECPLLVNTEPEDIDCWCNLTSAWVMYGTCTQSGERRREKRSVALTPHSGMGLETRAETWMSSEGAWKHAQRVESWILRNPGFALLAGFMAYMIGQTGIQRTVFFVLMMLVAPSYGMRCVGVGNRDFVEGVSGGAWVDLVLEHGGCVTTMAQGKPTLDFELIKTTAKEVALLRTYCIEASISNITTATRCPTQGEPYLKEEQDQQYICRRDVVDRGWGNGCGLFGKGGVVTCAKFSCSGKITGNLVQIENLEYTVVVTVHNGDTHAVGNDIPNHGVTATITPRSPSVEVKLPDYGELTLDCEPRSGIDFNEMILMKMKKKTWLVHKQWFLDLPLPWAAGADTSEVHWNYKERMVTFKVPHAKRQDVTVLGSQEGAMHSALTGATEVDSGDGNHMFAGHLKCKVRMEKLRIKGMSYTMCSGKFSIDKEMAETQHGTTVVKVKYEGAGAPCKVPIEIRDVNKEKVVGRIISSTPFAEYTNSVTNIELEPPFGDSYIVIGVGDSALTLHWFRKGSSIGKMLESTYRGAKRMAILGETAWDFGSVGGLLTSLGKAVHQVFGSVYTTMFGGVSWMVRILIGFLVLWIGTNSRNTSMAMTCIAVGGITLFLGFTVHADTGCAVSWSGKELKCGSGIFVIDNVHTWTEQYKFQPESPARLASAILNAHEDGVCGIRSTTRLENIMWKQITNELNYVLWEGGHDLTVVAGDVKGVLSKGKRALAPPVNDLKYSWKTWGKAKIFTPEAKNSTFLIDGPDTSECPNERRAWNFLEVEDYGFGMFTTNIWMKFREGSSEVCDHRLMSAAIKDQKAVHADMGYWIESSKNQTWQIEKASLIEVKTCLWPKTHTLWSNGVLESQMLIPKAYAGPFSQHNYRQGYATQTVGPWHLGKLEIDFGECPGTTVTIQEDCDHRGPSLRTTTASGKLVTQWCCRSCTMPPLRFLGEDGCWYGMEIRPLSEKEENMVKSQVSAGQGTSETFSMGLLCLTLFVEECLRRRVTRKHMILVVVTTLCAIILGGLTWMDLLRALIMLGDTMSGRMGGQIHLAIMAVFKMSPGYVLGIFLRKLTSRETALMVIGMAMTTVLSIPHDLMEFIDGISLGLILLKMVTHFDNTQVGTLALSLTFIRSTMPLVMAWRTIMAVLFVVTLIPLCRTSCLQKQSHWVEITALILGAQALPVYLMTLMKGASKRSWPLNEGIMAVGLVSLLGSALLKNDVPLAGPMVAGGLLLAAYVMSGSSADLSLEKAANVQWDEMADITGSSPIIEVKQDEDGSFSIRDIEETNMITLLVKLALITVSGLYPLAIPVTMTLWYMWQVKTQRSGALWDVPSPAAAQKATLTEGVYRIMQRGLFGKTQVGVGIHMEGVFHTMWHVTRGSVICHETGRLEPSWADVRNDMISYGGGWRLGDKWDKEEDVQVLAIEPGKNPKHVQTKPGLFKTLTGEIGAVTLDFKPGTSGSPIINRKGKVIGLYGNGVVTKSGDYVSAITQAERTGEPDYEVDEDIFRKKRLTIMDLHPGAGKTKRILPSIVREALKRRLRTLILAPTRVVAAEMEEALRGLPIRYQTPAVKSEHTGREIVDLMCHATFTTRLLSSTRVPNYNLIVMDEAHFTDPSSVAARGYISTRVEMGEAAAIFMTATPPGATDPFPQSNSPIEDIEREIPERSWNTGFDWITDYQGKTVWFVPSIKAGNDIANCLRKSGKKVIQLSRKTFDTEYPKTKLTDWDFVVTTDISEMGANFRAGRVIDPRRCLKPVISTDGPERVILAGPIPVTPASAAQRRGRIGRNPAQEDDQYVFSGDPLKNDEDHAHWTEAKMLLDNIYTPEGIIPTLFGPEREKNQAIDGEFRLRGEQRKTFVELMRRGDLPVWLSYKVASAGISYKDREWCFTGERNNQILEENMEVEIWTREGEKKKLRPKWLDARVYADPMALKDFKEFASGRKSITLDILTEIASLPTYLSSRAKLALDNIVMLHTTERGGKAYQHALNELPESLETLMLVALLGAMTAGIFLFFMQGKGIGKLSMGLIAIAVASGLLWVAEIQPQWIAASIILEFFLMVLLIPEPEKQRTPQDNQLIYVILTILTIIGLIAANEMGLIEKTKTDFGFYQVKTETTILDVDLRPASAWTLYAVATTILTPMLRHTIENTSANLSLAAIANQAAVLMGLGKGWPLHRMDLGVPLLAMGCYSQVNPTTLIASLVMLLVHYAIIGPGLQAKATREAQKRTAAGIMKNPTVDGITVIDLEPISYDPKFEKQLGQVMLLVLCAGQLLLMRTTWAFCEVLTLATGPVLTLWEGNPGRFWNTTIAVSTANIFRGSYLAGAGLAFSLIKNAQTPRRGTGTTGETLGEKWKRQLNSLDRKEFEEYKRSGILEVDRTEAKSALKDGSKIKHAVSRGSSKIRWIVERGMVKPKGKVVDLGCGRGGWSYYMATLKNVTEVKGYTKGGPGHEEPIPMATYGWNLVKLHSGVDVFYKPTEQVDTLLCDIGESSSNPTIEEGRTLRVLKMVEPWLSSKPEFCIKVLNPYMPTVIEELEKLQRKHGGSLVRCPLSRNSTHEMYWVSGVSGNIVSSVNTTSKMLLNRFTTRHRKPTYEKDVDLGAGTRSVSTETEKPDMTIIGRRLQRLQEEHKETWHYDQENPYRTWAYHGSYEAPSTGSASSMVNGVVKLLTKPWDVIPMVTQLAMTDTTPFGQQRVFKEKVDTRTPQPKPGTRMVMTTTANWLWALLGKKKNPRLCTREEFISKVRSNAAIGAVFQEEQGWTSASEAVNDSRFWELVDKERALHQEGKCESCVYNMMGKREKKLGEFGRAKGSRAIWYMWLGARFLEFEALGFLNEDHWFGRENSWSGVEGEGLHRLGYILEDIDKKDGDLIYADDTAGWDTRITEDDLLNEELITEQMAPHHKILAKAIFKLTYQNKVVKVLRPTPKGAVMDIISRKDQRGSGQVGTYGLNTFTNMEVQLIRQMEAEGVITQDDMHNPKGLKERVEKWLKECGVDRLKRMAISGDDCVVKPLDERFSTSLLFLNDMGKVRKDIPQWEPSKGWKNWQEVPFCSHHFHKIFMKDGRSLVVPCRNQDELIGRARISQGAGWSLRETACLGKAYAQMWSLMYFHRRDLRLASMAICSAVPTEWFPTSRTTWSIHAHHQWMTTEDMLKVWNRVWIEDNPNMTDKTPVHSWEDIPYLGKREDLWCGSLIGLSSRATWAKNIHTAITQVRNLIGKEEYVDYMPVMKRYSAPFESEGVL

Take “SUMO*-DENV-4 NS1 fusion protein (from UniProt Q58HT7 775-1126)”: the stoichiometry N (usually the number of molecules, sites or subunits per partner or assembly) in assay [1] came to 2.

B1: MAb 3H7A9 (antibody, V domains shown)
VH: EVQLQQSGAELVKPGASVKLSCTASGFNIKDTYMHWVKQRPEQGLEWIGRIDPANGNTQYGPKFQGKATITADTSSNTAYLQLSSLTSEDTAVYYCARGGIFYYYGSSYSYAMDYWGQGTSVTVSS
VL: DIQMTQTTSSLSASLGDRVTISCRASQDISNYLNWYQQKPDGTVTLLIYYTSRLHSGVPSRFSGSGSGTDYSLTISNLEQEDIATYFCQQGNTLPRTFGGGTKLEIK
As for B1, the binding result in assay [2] and in assay [3] was “binds” in each case.

B2: MAb 6D4B10 (antibody, V domains shown)
VH: EVQLQQSGPELVKPGASVKMSCKASGYTFTSYVMHWVKQKPGQGLEWIGYLNPYNDDTKYNEKFKGKATLTSDKSSSTAYMELSSLTSEDSAVYYCAYGPPYALDYWGQGTSVTVSS
VL: QIVLTQSPAIMTASLGERVTMTCTASSSVSSSYLHWYQQKPGSSPKLWIYSTSNLASGVPARFSGSGSGTSYSLTISSMEAEDAATYYCHQYHRSPYTFGGGTKLEIK
notes: also called biotinylated 6D4B10
With B2, the binding result in assay [4] and in assay [2] was “binds” each time.

B3: MAb 8A6F2 (antibody, V domains shown)
VH: DVQLQESGPDLVKPSQSLSLTCTVTGYSITSGYNWHWIRQFPGNKLEWMGYIHYSGGTNYNPSLKSRISITRDTSKNQFFLQLNSVTTEDTATYYCARRTGTVPFAYWGQGTLVTVSA
VL: EIVLTQSPALMAASPGEKVTITCSVSSSISSSNLHWYQQKSETSPKPWIYGTSNLASGVPVRFSGSGSGTSYSLTISSMEAEDAATYYCQQWSSYPLTFGGGTKLEIK
notes: also called biotinylated 8A6F2; 86FA2
Regarding B3, in assay [2], the binding result is listed as “binds”.
